The DeepSol protein solubility set

Assay: soluble on expression in E. coli; label from the status in PepcDB or PDB records
With “MAAEIINGEKVIRKPNALYSDYPRKGGAASTATHYCPGCGHGVLHKLIAEAIDDLGIQDRTVMISPVGCAVFAYYYFDTGNIQVAHGRAPAVGTGVSRAEENAVVISYQGDGDLASIGLNETLQAANRGEKIAVFFVNNTVYGMTGGQMAPTTLIGEKTTTTPEGRDPRFAGYPLHMCELLDNLKAPVFIERVSVSDISHIRKARKAIRKALEVQRDGKGYAFVEVLAACPTNLRMDAEQAVSFINEEMEKEFPLRNFRDDSESTEPLYRGVSDFTTESLEKLYGIEADAGEKPVRADFAPIQTKIAGFGGQGVLSMGIVLAQAGVKANLNASWFPSYGPEQRGGTSNCSVVISGQPIGSPTVYTPDILIAMNRPSLERFEGAVRKGGFILYDSTIGEAETPEGVKAVSVPATEKAKEAGDERAANSFMLGVLLGLNATGLEEEAFKGALAENFAGKPRVIAFNQQMLEAGAEWARENVKI” the “soluble on expression in E. coli” value was “not soluble”. For “MAAHELKEALETLKETGVRITPQRHAILEYLVNSMAHPTADDIYKALEGKFPNMSVATVYNNLRVFRESGLVKELTYGDASSRFDFVTSDHYHAICENCGKIVDFHYPGLDEVEQLAAHVTGFKVSHHRLEIYGVCQECSKKENH”, the “soluble on expression in E. coli” value was “soluble”. With “MAAIAFIGLGQMGSPMASNLLQQGHQLRVFDVNAEAVRHLVDKGATPAANPAQAAKDAEFIITMLPNGDLVRNVLFGENGVCEGLSTDALVIDMSTIHPLQTDKLIADMQAKGFSMMDVPVGRTSANAITGTLLLLAGGTAEQVERATPILMAMGSELINAGGPGMGIRVKLINNYMSIALNALSAEAAVLCEALNLPFDVAVKVMSGTAAGKGHFTTSWPNKVLSGDLSPAFMIDLAHKDLGIALDVANQLHVPMPLGAASREVYSQARAAGRGRQDWSAILEQVRVSAGMTAKVKM” the “soluble on expression in E. coli” value was “soluble”. With “MAAIKANEQDAVGMIVRKQSEFEENSHNFNNNGPSLSDMPIEVIHNIVDYVDPINILVIRKVCRKLRNVLDGDPKFKDVHLHQPTSLDMNFSLELDDSWVDYRTNGSGSGLGLFRNSISKTKTKIFVLKHENENENENGTNCTYGF” the “soluble on expression in E. coli” value was “soluble”. In the case of “MAAMFSNTRSVASSSGHIVEFKAGRSRLEAGSGDTMRKVVAEPKKGLVFIKQSNDMLIHFCWKDRETGAVVDDLIIFPDDAEFKAVPGCPDGKVYMLKFKSGDMKLFWIQDSTPDVDKDLVKKVTDALNKPPTSRPAASRSAGSNANTDRQSAGGSLISSSDMNAPLGGIDQGQLMSLIQSLQGGNSDTLPISSVPRGEDASSEADCEPSTNAAEEGSSNPLSLNNPAIQQIFNNLGRSQKKEVAVSLATALSNETVAEVARNHAEELAPHLPTSDDPARELSETVRTPQFRQAADTLGHALQTGQLGPVVAQFGMDEATVGSANQGDIRGFAANLTKAEGGEDAAKTQNSDDDATREPEPKRNRPDNEDMDVD”, the “soluble on expression in E. coli” value was “not soluble”. With “MAANFWNSSHYKQLLDPEEVDVVHDLDKERGISIDDFKLIKFHMSNHIMKLAQHIKVRQRVVATAITYMRRVYIRKSMVEFEPRLVALTCLYLASKAEESIVQARNLVFYIKRLYPDEYNKYELKDILGMEMKVLEALDYYLVVFHPYRSLSEFLQDAALNDVNMNQITWGIVNDTYKMDLILVHPPYRIALACIYIASVHREKDITAWFEDLHEDMNLVKNIAMEILDFYENYRTITEEKVNSAFSKLALKL” the “soluble on expression in E. coli” value was “soluble”. With “MAAPPSPGRTADQADQVCTFLFKKPGRKGAAGLRKRPACDPEHGESSSSGDEGDTVAQPPRVAPRPRGLHSWQKAAHGDRRGEEAAPESLDVVYRSTRSAKPVGPEDMGATADFEQDTEKEHHTPTILKCSQRVQEALRGREHDHIYRGIHSYLRYLKPKDTSMGNSSSGMARKGPIRAPGHLRATVRWDYQPDICKDYKETGFCGFGDSCKFLHDRSDYKLGWEIERELEEGRYCICEDENHEVGSEEEEIPFRCFICRQAFQNPVVTKCRHYFCESCALEHFRATPRCYICDQPTGGIFNPAKELMAKLQKLQAAEGKKR” the “soluble on expression in E. coli” value was “soluble”. With “MAAQATAETPAGELPVIDAVTTHAPEVPPAIDRDYPAKVRVKMETVEKTMKMDDGVEYRYWTFDGDVPGRMIRVREGDTVEVEFSNNPSSTVPHNVDFHAATGQGGGAAATFTAPGRTSTFSFKALQPGLYIYHCAVAPVGMHIANGMYGLILVEPKEGLPKVDKEFYIVQGDFYTKGKKGAQGLQPFDMDKAVAEQPEYVVFNGHVGALTGDNALKAKAGETVRMYVGNGGPNLVSSFHVIGEIFDKVYVEGGKLINENVQSTIVPAGGSAIVEFKVDIPGNYTLVDHSIFRAFNKGALGQLKVEGAENPEIMTQKLSDTAYAVPR” the “soluble on expression in E. coli” value was “soluble”. In the case of “MAAQESLHVKTPLRDSMALSKVAGTSVFLKMDSSQPSGSFKIRGIGHLCKMKAKQGCKHFVCSSAGNAGMATAYAARRLGLPATIVVPSTTPALTIERLKNEGATVEVVGEMLDEAIQLAKALEKNNPGWVYISPFDDPLIWEGHTSLVKELKETLSAKPGAIVLSVGGGGLLCGVVQGLREVGWEDVPIIAMETFGAHSFHAAVKEGKLVTLPKITSVAKALGVNTVGAQTLKLFYEHPIFSEVISDQEAVTAIEKFVDDEKILVEPACGAALAAVYSGVVCRLQAEARLQTPLASLVVIVCGGSNISLAQLQALKAQLGLNELLK”, the “soluble on expression in E. coli” value was “soluble”. For “MAAQLSEIEVKGVKIPLIYEKSTLMPAVNLQIVFTHAGSITDEIPGLASLSARIFNEGTKTLGSVEFAKELENRAISLSVGSGNETLVFDMSALKSEYLEGLRLTRELLRQPNFTKEALSKVKTDIKASLLRKESDFDYVAQVELHRRLFEGTPLEYPSMGNRESIEKITLKEVEEFWKKRGVLRRAIVLVGGDVELEEVKKDLLSLLSVLPLGEEGELVRYEAKGDLEVKSVIKNTQQAYIYFGSPFSVKNLREDSYKAKVAAFVLGSSGFGSRMMEEIRVKRGLAYSAYWRISLSKSVNYSLGYLQTKLENEQQAIGVVRELIEEFLQKGITEKELEGAKQFLLGSEPLRNETLSQRLSSAFSAYYRGLPLDFAKEELHKIEALTLEEINAYIKEHQELLQLSFSVVTAPKE”, the “soluble on expression in E. coli” value was “not soluble”. In the case of “MAASEAAVVSSPSLKTDTSPVLETAGTVAAMAATPSARAAAAVVAAAARTGSEARVSKAALATKLLSLSGVFAVHKPKGPTSAELLNRLKEKLLAEAGMPSPEWTKRKKQTLKIGHGGTLDSAARGVLVVGIGSGTKMLTSMLSGSKRYTAIGELGKATDTLDSTGRVTEEKPYDKITQEDIEGILQKFTGNIMQVPPLYSALKKDGQRLSTLMKRGEVVEAKPARPVTVYSISLQKFQPPFFTLDVECGGGFYIRSLVSDIGKELSSCANVLELTRTKQGPFTLEEHALPEDKWTIDDIAQSLEHCSSLFPAELALKKSKPESNEQVLSCEYITLNEPKREDDVIKTC”, the “soluble on expression in E. coli” value was “soluble”. In the case of “MAASTFFIPSVNVIGADSLTDAMNMMADYGFTRTLIVTDNMLTKLGMAGDVQKALEERNIFSVIYDGTQPNPTTENVAAGLKLLKENNCDSVISLGGGSPHDCAKGIALVAANGGDIRDYEGVDRSAKPQLPMIAINTTAGTASEMTRFCIITDEARHIKMAIVDKHVTPLLSVNDSSLMIGMPKSLTAATGMDALTHAIEAYVSIAATPITDACALKAVTMIAENLPLAVEDGSNAKAREAMAYAQFLAGMAFNNASLGYVHAMAHQLGGFYNLPHGVCNAVLLPHVQVFNSKVAAARLRDCAAAMGVNVTGKNDAEGAEACINAIRELAKKVDIPAGLRDLNVKEEDFAVLATNALKDACGFTNPIQATHEEIVAIYAAR”, the “soluble on expression in E. coli” value was “not soluble”. In the case of “MAAYQVLIVGAGFSGAETAFWLAQKGVRVGLLTQSLDAVMMPFLPPKPPFPPGSLLERAYDPKDERVWAFHARAKYLLEGLRPLHLFQATATGLLLEGNRVVGVRTWEGPPARGEKVVLAVGSFLGARLFLGGVVEEAGRLSEASYPDLLEDLSRLGFRFVEREGEVPETPSTPGYRVRYLAFHPEEWEEKTFRLKRLEGLYAVGLCVREGDYARMSEEGKRLAEHLLHELG”, the “soluble on expression in E. coli” value was “soluble”. For “MACCLSEEAREQKRINQEIEKQLQRDKRNARRELKLLLLGTGESGKSTFIKQMRIIHGQGYSEEDKRAHIRLVYQNVFMAIQSMIRAMDTLDIKFGNESEELQEKAAVVREVDFESVTSFEEPYVSYIKELWEDSGIQECYDRRREYQLTDSAKYYLSDLRRLAVPDYLPTEQDILRVRVPTTGIIEYPFDLEQIIFRMVDVGGQRSERRKWIHCFENVTSIMFLVALSEYDQVLVECDNENRMEESKALFRTIITYPWFTNSSVILFLNKKDLLEEKILYSHLADYFPEYDGPPRDPIAAREFILKMFVDLNPDADKIIYSHFTCATDTENIRFVFAAVKDTILQHNLKEYNLV”, the “soluble on expression in E. coli” value was “not soluble”.
